Assay results from the DeepSol protein solubility set.

Experiment: soluble on expression in E. coli; label from the status in PepcDB or PDB records

Row | Sequence | soluble on expression in E. coli
1 | GPGSMEPKSVEEYSQQNYWIGRYEVEEQHDWFLSVRQPTIAALCDELLKVFQQRERLHSADGNVEGDQPALRVLHLGTGNSSLCMDLYEAVRERQLPFALHQVAMDYAPNVIERMQSKYSPDILPNAQWIVGDVRKLEEFREYGPFDAVIEKGTMDAIEADKNRPEMKGDVEAMLHGVDTLLKHAKGYGAFLQVTWVAPHLRLPYTKGDAFAWGDQVRYSLLGESDIYRLFVYTVRE | soluble
2 | GPGSMERVRIRYVLTGACPPTYSGRVVHDFVALKQPNGCDTTIEMVKERFRSNWPADVKELAESISESGIRVLKAGRVLNDHDSLMRHLTASERKACLVSGDTKVGDTNDEMQKPSVLMHMVIQGNRAPLENSRKEKHKVSSTPEGGNSNEGHEMKKDSCCCVM | soluble
3 | GPGSMEVYRRITERVRGALWAHHGRLMSERQFHRILAFVYNNKYEYQIRFDRMEVVGREWGGRVEVVTTPAGYLKRVRVNPCVEDLTLYQQQQLILSAYASACADGRKLMEQAEMNIYKQFLKDLKPIVMGIRDNPEFYTVPENSIETIGGVLQTGDSNNLCHTHRTIPAAKARQPTDEVRARQEWEQKWINSPRGQSWALTLRGKTYFTLHGPQYRPRGAPGAKKETLPLDIPAPYTAMDEKRLLKKNWMAYLDNKHVAEVMWTRVKIADREKRQRLLQETGRAWHRPINEEAINRW | not soluble
4 | GPGSMFLSLANKLVVSRQRGSSCERMAQPKERASISSEELVVWKAAERVRKGASLPLSRVARCIASATKLLKVETKVVERVCGDTIVFGPIRGHAADFANILLTKVLPNRCVRNIVFLGNYIDGAHQSLGVLFLIAALIVCSRFHIVPLIGKHEMMYPILSETFGSLRNEMLLCCTRRRQPLEQYESIMKEFFSVLPIACVVENKFFCVAGGPSSKFRTLKEIELITMTQEASNEFVLNEPMDEDEERIADRSAFVASQGTELAFRYTFNAACNFLSRNKLAMLIVGMEYHMSLPDYDSFARPNHYKESIYFPGYMLGRIHPESQLPAVLSIFSAPSFCGVNRNNACIAEIAGNRLVVQELGVYAKRPLVTPGTQDHAFSWAQPMLERAVVAIARDIIRGVIKEDAATDDDAHRKRLEEVAVSKMRRMCMLLRTHNIPFPDVPKLTFR | not soluble
5 | GPGSMGQVGGTATSGRGLTALQVAAALRVTAAARLKQAEAAVSSSQAMHSAHCSIAEQSKAIKPEDCSAVQRLTVPSTDHKGKHVEVRVTEYAPDVFSFLRQLKGVTDPQFADEWSLPENRLKMEMGEGRSQALFLKSKTMLLMCKTISVEEVHALLHVLRAYTLHITAHPSSLLMRFYMLLKVSVRSEEGYILCFNDVFGTASVLHEKWDIKGRVPKNGKHLHYPHLIGSGYEPDPHATKPPPKRHVLANPAIDASQQHPGRESAVVVRGTKDAQGLPTLHDKDLTRLFWVPRTARKRLVEELLRDYDFLKNAGMMDYSLLIGVAYQDDKTRPSDKHCGIESTNVTSSSAVAPASTSAEARPASLAQDSHPSGTRTMLTTVPEFANGVRSFDGQEMYYIGVIDVLTTYTLKKKSANFFKSLLWKQKTLSTIPPDRYAQRIASFTELIFPDVKEEANGG | not soluble
6 | GPGSMHASVVLNMCTASQYTRRTLQSLFERREVDLSALVHVLADNAGYLAATQQGCISLMRVFELCDAAQKAELVRELLPKLAALSMDAFANYMVQCAIEHSDRATAAQYVVAHFTGNILQMSCNKHSSNVLEVVLRCCGEVPAVRRLFLDELVFNPAALKEVVGDLYGNFVVQALIGVVTNPMEFKRVEDRLRPALVGCQFAAKIEGKIKAKRPVPPHAGGAVHHHSYPQSRQQRPLSVPCTMPDHVGPCAPSVRATIALPQAPVMSLGEARVPTQGYCHRPYDCNPLCCAPLAAEQQQPQNVVQAPSGHVYPVDHFQFPILKERTAARAAGAVPVTDGEDSGPVYGPSPAARRHLQQQQQQAFRPPFNIMC | not soluble
7 | GPGSMIGLYRVVQFVHLTFFSTGHDLKRRYSKAGDWAVVTGGTEGIGRAVALDLANRGFNVCVISRTQSKLDEVVAEIEKCGTRGHSIAFDFATAGEAEYKMLFAKLDSLAVGLLVNNVGVNYTYANYFDEADVVDDLRIIKVNCEATTRMTKFFAPRMKARRAGGIVLLGSFSAVTPAPLLATYAGTKAFNVSFGDALFYELKKFGVDVLVVTPNLVVSRMTQGASTRAPKETFLTVGAAAMARQTLNQLGVVNRTAGHRNHIIIEAIARLLPESLRGEKMLAMHESIKKRAERKAKQ | not soluble
8 | GPGSMLNTFMFPGQGSQAKGMGGALFDRFADLTAQADAVLGYSIRALCVDDPRDELGRTQFTQPALYVVNALTYYAKCEDSGETPDFLAGHSLGEFNALLAAGCFDFETGLKLVARRAELMSQARDGAMAAIVNASREQIERTLDEHGLVDTAIANDNTPSQLVISGPAHEIARAEALFQHDRVRYLRLNTSGAFHSKFMRPAQQAFAAHLQSFRLADPAIPVISNVSARPYENGRVSEGLAQQIASPVRWCESIRYLLALAAERGEAIEFTELGHGDVLTRLVHTIRRQTPAPAAAATSARARPTPPGEPERPAQQTAAAPRASDSASASLGAAERVAAWNRDYPVGTRVRSSLIHDDVLETRTPATVLFGHRAAVYMKGYNGYFDLAEVTPA | soluble
9 | GPGSMLPHSQPLVLPMEPSNWAVMPPTGVEMPMEPGTFEDISTAGWIGPRRRSFCGPQTEEEWEDLMIHRSSLRRESGQGTGVGLSGSGCLLGTDDPDRDVLCEYYGDMANRDEKVLSCGLRGQEGRRVLGNKPLRQRPNGPMRERTNYGSLASRRQRVMEEGGVWGDVEVCCVPVEPWHPMDMVCLGEERPEDVCVLRQTDTELYGTGRAFATDGKP | not soluble
10 | GPGSMLVDRLQLSCEGTTTAGFTPLLEQFDKGTATQERGAEERAEGNLTPLRVYFRNKRHSLWGHRLWNAAKYMVKRMDSRMIDVRGKTVLELGAGLGVPSLAAFRNGARCVVATDYPDGDLLEILEMNVKANCRADLIDADAAAFLLQEAERLKLAQGYEKSGETVFSEAERQRALSTRCVVEPLLWGKQEHIQKVMSYTGGGGFDIVLLSDILFNHVCNDDLADTIVRVLQRSQHAAAYCVFSHHRAHKQVEDLEFFDKCVARGLRFEQVDEENYPMMFPDDSGPAEIRQPVKTYKIVHYFDDAGMAFQPGNDVFDVVIQGTGMVESIVSAALARSGIRVLHCDGEDDYGGAFKTMTVERMREYITGPLPASLDGAADNRDGRGDHEENHPRCNDGVIAVDRMDELKLHERRSFLLDLLPTHNLSNGETVRQLITSDMARHME | not soluble
11 | GPGSMNPLSTRRLGGTVTPGSALSGTCYVSHITRPARTMCWMKLAVFTQFPVVPSLAGTQVQGRQDLLASTAGAGTPEEASLFLQIELFDDECPQLCANFRRLCNGQSSTRQGQVYCFQGLTPSYCGTYFHKIIPSYCVQGGDITMRVKPGGTNSYSSAGRTWLPDEFKKRRHNEIGLVSMANNGPNSNGSQFFITTSAAHERAFNGRHCCIGHVVRGLDAFIALVAPFGNIEGHPSKYAVVVDCGEGEAPTLMSASSSPAAVFQASMAISETGTAGSSPAADSRSVSVEEAPAELDAHYCEQPPQLQLQHRQAADGTGVMAALSPSDAAAAAAPLSISPAQPLKSSLKEKTTAVSEAAKTHAKHVTYQL | not soluble
12 | GPGSMPIKAVVTDLDGTLLDPQHCISNYAAEVLKKIKEKGICFIVATGRPYAEVFNRIRHCHLAPDYIITSNGARIHDGAFNVVREHNLRPELVESLARVRTVKDPATGAELPKKFTTNIYRGAEWLTDKSIPEVSKAFHTDFQCTDLRERFYELQASELGDVHEIWFAGDHDELVLLDNALREKYPGDLCCTFSLPHLLDCVPAGVNKGNGVREAAEMLGLALDEVACFGDGMNDESMLQVTSTSFIMANAQQRLKDAVPHAQIIGSNADDGVAKKLEEMFFSA | soluble
13 | GPGSMPPKNAVKRNQKSSKQRDNFDEAAIDALIMAIEGKAKKGTTKSQLKQKEDKSLSRANGQSYVLSEQMRNALLAQMQQPTAQEEQYVNVPVPLTGEEKGWQEVAPNRYIRYEQFGGSDAEMNFIVNLFTAELTEPYSSFTYQYFVFGWPDLCITAFGVESETKPDNSVVGEKVGAVVSRVTRKGAGMPLRGYVAMFAVVPKFRGYRLGSRLVSLTVELMRAKGCDEVYLETPTSNVRALGLYLNLGFAKTKYLPRYYLDHSDARASEAVAEGCHPKVCPRDCFHGWCGEGVAGTLRVCLE | soluble
